Columns and labels:
[1] = target: T1, EGFR expressed on A431 cells (UniProt P00533 25-1210, limits assumed); experiment: EGFR receptor binding assay: inhibition of biotinylated EGF binding to A431 cells; highest value obtained
T1 construct: whole, on cells

[2] = target: T1, EGFR expressed on A431 cells; experiment: EGFR receptor binding assay: inhibition of biotinylated EGF binding to A431 cells; lowest value obtained
[3] = target: EGFR (as used for the KD column of Table 10) (UniProt P00533 25-645, limits assumed); experiment: method not described
[4] = target: T1, EGFR expressed on A431 cells; experiment: EGFR receptor binding assay: inhibition of biotinylated EGF binding to A431 cells; average
[5] = target: T1, EGFR expressed on A431 cells; experiment: cell-based or functional assay
[6] = target: T2, human TNFR1 (human p55 TNF receptor) (human, UniProt P19438 30-211, limits assumed); experiment: selection from dAb libraries
T2 construct: also called TNF receptor 1; TNFα receptor
T2 sequence: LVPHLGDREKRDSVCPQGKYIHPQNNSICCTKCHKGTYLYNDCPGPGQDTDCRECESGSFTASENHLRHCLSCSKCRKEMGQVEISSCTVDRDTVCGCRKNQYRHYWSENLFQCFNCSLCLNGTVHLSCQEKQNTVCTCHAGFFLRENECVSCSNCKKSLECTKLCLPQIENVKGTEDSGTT

mouse serum albumin = target: T3, mouse serum albumin (mouse, UniProt P07724 25-608); experiment: capture ELISA: dAb on protein A, biotinylated MSA, streptavidin HRP
T3 construct: Biotinylated (about 2 biotins per molecule) in the capture ELISA; unlabelled on the CM5 chip; also called MSA; biotinylated MSA
T3 sequence (P07724 25-608 limits assumed): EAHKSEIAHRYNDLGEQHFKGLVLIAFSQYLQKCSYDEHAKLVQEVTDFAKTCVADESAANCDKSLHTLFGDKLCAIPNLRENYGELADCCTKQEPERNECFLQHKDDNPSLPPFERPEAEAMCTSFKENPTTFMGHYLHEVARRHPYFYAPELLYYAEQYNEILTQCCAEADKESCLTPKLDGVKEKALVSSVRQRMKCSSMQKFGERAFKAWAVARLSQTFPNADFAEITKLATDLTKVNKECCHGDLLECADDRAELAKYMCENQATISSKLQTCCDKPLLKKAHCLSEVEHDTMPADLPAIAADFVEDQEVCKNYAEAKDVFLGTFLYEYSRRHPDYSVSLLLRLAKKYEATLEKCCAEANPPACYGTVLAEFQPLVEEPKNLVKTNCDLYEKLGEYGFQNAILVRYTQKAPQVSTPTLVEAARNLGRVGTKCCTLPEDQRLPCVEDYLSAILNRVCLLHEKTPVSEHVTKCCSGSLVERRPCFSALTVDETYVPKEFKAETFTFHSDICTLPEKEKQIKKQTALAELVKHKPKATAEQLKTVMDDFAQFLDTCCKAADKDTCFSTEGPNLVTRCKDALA

B1: DOM16-39-109 (other)
chain: DIQMTQSPTSLSASVGDRVTITCRASQWIGNLLDWYQQKPGEAPKLLIYYASFLQSGVPSRFSGGGFGTDFTLTISSLQPEDFATYYCQQANPAPLTFGQGTKVEIKR
notes: anti-EGFR dAb
IC50 [1]: 1.47 nM
IC50 [2]: 0.746 nM
Kd [3]: 1.01 nM
IC50 [4]: 1.05 nM
KINASE ASSAY IC50, average [5]: 8.69 nM
KINASE ASSAY IC50, highest value [5]: 11.1 nM
KINASE ASSAY IC50, lowest value [5]: 6.82 nM

B2: TAR2h-5 VH dAb (other)
VH: EVQLLESGGGLVQPGGSLRLSCAASGFTFDLYNMFWVRQAPGKGLEWVSFISQTGRLTWYADSVKGRFTISRDNSKNTLYLQMNSLRAEDTAVYYCAKTLEDFDYWGQGTLVTVSS
notes: TAR2-5 and TAR2h-5 are used for the same dAb; also called TAR2-5
binding result [6]: binds

B3: anti-serum albumin VH dAb, clones 8, 10 (other)
VH: EVQLLESGGGLVQPGGSLRLSCAASGFTFWVYQMDWVRQAPGKGLEWVSSISAFGAKTLYADSVKGRFTISRDNSKNTLYLQMNSLRAEDTAVYYCAKLSGKFDYWGQGTLVTVSS
notes: dAb
binding result (mouse serum albumin): binds

B4: anti-serum albumin VH dAb, clone 36 (other)
VH: EVQLLESGGGLVQPGGSLRLSCAASGFTFWSYQMTWVRQAPGKGLEWVSSISSFGSSTLYADSVKGRFTISRDNSKNTLYLQMNSLRAEDTAVYYCAKGRDHNYSLFDYWGQGTLVTVSS
notes: ranges to be checked
binding result (mouse serum albumin): binds
